We go through one molecule from patent US20070280950A1 (MEDICAL AND BIOLOGICAL LABORATORIES, published 2007).

One assay deals with T1, CD51 (human, UniProt P06756 31-1048).
T1 construct: whole, on cells; Co-precipitated with CD61 by antibody #33 from THP-1 cells; ruled out as the antigen by double staining of PBMCs; also called CD51 (112 kDa)
Kind of assay: flow cytometry, PBMCs double-stained with antibody #33 plus secondary antibody and PE-labeled CD51 antibody. The protocol: A flow cytometry was performed to determine which of CD51 and CD61, listed as candidate antigen molecules for antibody #33, is the antigen for antibody #33. After PBMCs were stained with antibody #33 and a secondary antibody, they were reacted with a PE-labeled CD51 antibody (BC) or a PE-labeled CD61 antibody (SZ21, BC) at 4° C. for 30 minutes and double-stained, after which flow cytometry was performed.
Background: Flow cytometry measures light scatter and fluorescence of single cells or particles in a stream.

A further assay addresses T2, human CD61 (human, UniProt P05106 27-788).
T2 construct: whole, on cells; Endogenous protein on human cells; In the immunoprecipitation it was solubilised from biotinylated THP-1 cell surfaces with NP-40 and came down together with CD51; also called integrin β3-subunit; integrin β3 chain
Kind of assay: flow cytometry on human cultured cells, 1 µg/ml antibody, FITC anti-mouse IgG secondary; Molt-4 and HUVEC also reactive; antigen later identified as CD61. The protocol:
To identify the antigen of antibody #33, its reactivity to various human cultured cells was examined by flow cytometry. THP-1 activated macrophage-like cells, HPB-ALL, Jurkat, PM-1, Molt-4, KM-3, HL-60, K562, THP-1, U937, 293T, and HUVEC were used as these cells. The THP-1 activated macrophage-like cells were prepared by culturing and differentiating for two days the THP-1 human monocyte-like cell line in RPMI (Sigma) including Streptomycin/Penicillin (Gibco BRL) and 10% FCS (Equitech) into which phorbol ester (PMA) (Sigma) has been added to a final concentration of 5 ng/ml.
Blocking with 1 mg/ml human IgG (Sigma) in FCS was performed for the various human cultured cells (1.0×10⁵ cells) and cells were reacted in a PBS solution comprising 2% FCS (Equitech) antibody #33 at a final concentration of 1 μg/ml at 4° C. for 30 minutes. After washing twice with PBS comprising 2% FCS (Equitech), cells were further reacted with an FITC-labeled anti-mouse IgG secondary antibody (MBL) at 4° C. for 30 minutes. Samples were further washed twice with PBS containing 2% FCS (Equitech) and analyzed with a flow cytometer (ALTRA BC).

T1 sequence (P06756 31-1048): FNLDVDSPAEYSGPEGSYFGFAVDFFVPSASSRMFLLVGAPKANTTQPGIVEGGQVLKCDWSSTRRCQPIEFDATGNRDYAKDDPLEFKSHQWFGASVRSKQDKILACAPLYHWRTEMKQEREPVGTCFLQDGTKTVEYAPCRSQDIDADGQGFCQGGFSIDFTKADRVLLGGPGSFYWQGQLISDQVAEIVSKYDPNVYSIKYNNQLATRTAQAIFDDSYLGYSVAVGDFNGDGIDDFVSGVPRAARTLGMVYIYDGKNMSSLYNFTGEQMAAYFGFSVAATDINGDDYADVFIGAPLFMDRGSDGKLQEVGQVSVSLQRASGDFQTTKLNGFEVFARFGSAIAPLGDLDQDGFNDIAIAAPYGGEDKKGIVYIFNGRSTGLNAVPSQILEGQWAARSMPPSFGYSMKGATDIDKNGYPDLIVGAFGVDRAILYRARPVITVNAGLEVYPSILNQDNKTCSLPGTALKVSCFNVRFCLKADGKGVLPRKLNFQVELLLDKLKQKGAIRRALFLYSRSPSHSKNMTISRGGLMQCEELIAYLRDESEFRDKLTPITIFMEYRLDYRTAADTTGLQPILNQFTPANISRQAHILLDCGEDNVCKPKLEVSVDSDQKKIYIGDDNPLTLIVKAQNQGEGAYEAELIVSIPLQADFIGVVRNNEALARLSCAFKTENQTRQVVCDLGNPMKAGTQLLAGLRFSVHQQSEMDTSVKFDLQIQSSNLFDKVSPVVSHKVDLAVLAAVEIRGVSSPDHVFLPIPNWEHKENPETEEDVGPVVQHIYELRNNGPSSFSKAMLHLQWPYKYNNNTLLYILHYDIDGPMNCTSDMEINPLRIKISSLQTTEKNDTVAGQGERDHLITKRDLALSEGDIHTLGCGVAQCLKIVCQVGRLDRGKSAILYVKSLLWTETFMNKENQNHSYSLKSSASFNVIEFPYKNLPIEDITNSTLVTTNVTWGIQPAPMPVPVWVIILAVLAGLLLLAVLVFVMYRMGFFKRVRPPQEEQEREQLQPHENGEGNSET
T2 sequence (P05106 27-788): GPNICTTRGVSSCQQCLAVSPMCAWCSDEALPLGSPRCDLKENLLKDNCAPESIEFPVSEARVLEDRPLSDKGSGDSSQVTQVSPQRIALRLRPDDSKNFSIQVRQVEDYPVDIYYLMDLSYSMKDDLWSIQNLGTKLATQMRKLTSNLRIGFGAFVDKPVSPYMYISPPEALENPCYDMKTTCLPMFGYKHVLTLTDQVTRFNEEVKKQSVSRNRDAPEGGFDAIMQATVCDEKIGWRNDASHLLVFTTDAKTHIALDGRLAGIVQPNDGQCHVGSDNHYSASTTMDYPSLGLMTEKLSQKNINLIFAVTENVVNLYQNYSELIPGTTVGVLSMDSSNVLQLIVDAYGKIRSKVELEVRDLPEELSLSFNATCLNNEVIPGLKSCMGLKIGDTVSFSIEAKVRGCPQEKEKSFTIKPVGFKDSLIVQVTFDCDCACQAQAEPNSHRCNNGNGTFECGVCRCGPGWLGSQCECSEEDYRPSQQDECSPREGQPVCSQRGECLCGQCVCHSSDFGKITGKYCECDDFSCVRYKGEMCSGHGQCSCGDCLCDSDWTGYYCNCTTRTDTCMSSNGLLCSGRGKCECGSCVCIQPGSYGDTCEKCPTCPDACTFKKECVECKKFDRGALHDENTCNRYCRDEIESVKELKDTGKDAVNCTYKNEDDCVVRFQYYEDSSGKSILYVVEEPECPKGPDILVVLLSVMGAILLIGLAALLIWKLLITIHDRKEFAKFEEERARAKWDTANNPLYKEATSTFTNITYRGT

B1: antibody #33 (antibody, IgG2a, V domains shown)
VH: EVQLLQSGPELVKPGASMKISCKASGYSFTGYTMNWVKQSHGKNLEWIGLINPYSGVTTYNQRFKGKATLTVDKSSSTAYMELLSLTSEDSAVYYCATRGALGQAYYFDYWGQGTTLTVSS
VL: QIVLTQSPVIMSASPGERVTLTCSASSSVNYMHWYQQKSGTSPKRWIYDTSKLASGVPPRFSGSGFGTSYSLTITNMEAEDAATYYCQQWSSKPPTFGFGTKLELQR
notes: also called monoclonal antibody #33; mouse anti-human CD61 antibody
Regarding B1, the binding result with CD51 was “no binding”; in the assay with human CD61, “binds”.
